The supplement of paper PMC12042874
± gives the uncertainty stated by the source.

Assay: amyloid nucleation score (Sup35N fusion, yeast selection) (log enrichment); library NNK3; higher = more nucleation; inactive = no reads after selection
How it was run: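 DiMSum was used to calculate nucleation scores as log enrichment of output over input reads, centred on the mode score of non-aggregating sequences. Sequences with fewer than 100 input reads were not scored. Input and output came from Illumina sequencing of plasmid inserts in psi-negative yeast expressing peptides of 20 random codons fused to Sup35N, induced 24 hours with 100 μM copper sulfate and then grown 7 days at 30°C on medium lacking adenine and uracil.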

Substance	amyloid nucleation score
FAILNFGMSSIIFVCLTCAN	inactive
NITVHVNRMKFCCMYAESHD	inactive
VMMDWILQIVAYSSDHTGSK	inactive
KYYFRGWKTEPVTWFGCQAM	0.488 ± 0.2
HFCPVRKGGAGIRYFYCSCW	1.7 ± 0.12
KSQLFLMWSSSKLLTYTVQA	inactive
TIVNGNVEFGMKLEWEHGCI	inactive
GILLRFNKGA	inactive
RYLIVVFASC	inactive
YQYPVVDKRMYIFTTMFYFT	2.57 ± 0.082
FSIFSVFEPWMISKFCP	inactive
NTDPTQVFQASN	inactive
RCDCLRRNGSLHSQFNVSGG	1.02 ± 0.2
SRFEGLASDTDMYSRDSTWR	inactive
VLPNIQFFYCMCWVMLYLPF	inactive
VWETKMTLLINSKNYFVGFW	inactive
GIYPSHHWGI	inactive
LRAEVLSSYVTWVHAEGPHC	inactive
AICAVPRTKMMIQRTSSNRS	inactive
VIVARFLFMGTTFHVPDVRP	1.97 ± 0.075
IKSLFVGGFSLNVTPTHKGR	1.57 ± 0.13

Substance	amyloid nucleation score
KVCFCSLL	2.94 ± 0.075
FQVYFLSVYACRCLMARLGS	inactive
PCHPRGKRENTMRAWGRSCE	inactive
IMSKVASDALIPVTSSMSTG	inactive
SRYTLNAFYMWG	2.02 ± 0.1
QMSFQSSYQVRLFLVPPFQW	0.412 ± 0.23
SDNGEIMILYRLRAVGDFE	inactive
STICDFNLICSAFANSVRLR	inactive
ITLRDVGGHGANLWEGMQFM	inactive
LRRQSVMWDKSYAGTWILES	inactive
HGVNT	inactive
SSGVTVDGSMCRI	inactive
FMKILQVTDWDPGSVYNSSN	inactive
KLLFLSYTYWWKSHFWRFRT	inactive
IMFSILSVMML	1.74 ± 0.11
GIFKFMAV	inactive
GSSYGVIIVQYYP	2.02 ± 0.076
DPSCGECFKA	0.961 ± 0.1
MLIRYAVLALCSCGTNFTDL	inactive
GRAPYMWC	-0.955 ± 2.4
NTCMQPCLSRVCFELDVGCR	inactive

Substance	amyloid nucleation score
SINRTKQCLEVNFHLDDCKA	inactive
MSFGKSCEVKGGL	inactive
TVNPMIVDPCNW	inactive
DDDEVASCLPYWRCAALKSG	inactive
KIYGIPYCTRVGCNLWPGAG	0.294 ± 0.39
RQGRYEHQRGPFSLVSQVG	-0.083 ± 1.1
RYSLCCYGGFFRYSRDFMRR	1.14 ± 0.14
DWNISLNLQDIGRRSLPIFA	inactive
CFVFWKSRQIYWMMMSRCVV	inactive
AYNSYELVRAL	inactive
IQRVGTKGDVISTFCNRQQL	inactive
RHRQSPYIINSVVIFGNQGT	2.5 ± 0.067
CSGDD	inactive
VWLFVSSMEYTNGTYQHHMM	inactive
YYVVGQPAASQK	inactive
RDPASGVSMCTIIIVKGYTI	0.57 ± 0.2
YLPSSSEFR	inactive
EVGYKTVFPVGIMNDIVMWM	inactive
LPSGFLGPLIPVESQIPRTQ	inactive
KFCISSKDKIF	inactive
FIYAC	inactive

Substance	amyloid nucleation score
SDRFHVAHNNFLMRGKGFRT	inactive
ASANLRILYLWTIGNVLNAY	inactive
IIRVLNWYHYIEAKTLNSLR	inactive
QRDVDLMVSIGTPTSNRYET	inactive
LTKCPCRLLCRLRSRARRMG	-0.328 ± 0.98
QNRFDLPGMSQRSTHDRAPS	-0.03 ± 0.73
RRMTSYFL	inactive
GNKMVLVW	inactive
FCDGPGTKY	inactive
ITFIM	inactive
KSGIV	0.633 ± 0.19
RCYYMAMVMYTLLPLLRAET	-0.074 ± 0.32
GDTDFYRSCNASYIPSLSRL	inactive
NHQIVRDDRCYKLLIQAVRM	inactive
IADDQTYLLVLLFYFIKKLN	inactive
FCSFEVRGCY	0.346 ± 0.2
LVLSWVITEVMDRVWRGSRG	inactive
MKGVLAKNGYIDGVLGNTAM	inactive
